Results on 1 molecule are retold here after US20110280859A1 (UNIVERSITY OF ROCHESTER, published 2011).

The target in test [1] is β1 integrins on human neutrophils (human, UniProt P05556 21-798). The test can be described thus: cell-based or functional assay.
For test [2], the target named is β3 integrins on human neutrophils (human, UniProt P05106 27-788). The test can be described thus: cell-based or functional assay.
Chain of β3 integrins on human neutrophils (P05106 27-788): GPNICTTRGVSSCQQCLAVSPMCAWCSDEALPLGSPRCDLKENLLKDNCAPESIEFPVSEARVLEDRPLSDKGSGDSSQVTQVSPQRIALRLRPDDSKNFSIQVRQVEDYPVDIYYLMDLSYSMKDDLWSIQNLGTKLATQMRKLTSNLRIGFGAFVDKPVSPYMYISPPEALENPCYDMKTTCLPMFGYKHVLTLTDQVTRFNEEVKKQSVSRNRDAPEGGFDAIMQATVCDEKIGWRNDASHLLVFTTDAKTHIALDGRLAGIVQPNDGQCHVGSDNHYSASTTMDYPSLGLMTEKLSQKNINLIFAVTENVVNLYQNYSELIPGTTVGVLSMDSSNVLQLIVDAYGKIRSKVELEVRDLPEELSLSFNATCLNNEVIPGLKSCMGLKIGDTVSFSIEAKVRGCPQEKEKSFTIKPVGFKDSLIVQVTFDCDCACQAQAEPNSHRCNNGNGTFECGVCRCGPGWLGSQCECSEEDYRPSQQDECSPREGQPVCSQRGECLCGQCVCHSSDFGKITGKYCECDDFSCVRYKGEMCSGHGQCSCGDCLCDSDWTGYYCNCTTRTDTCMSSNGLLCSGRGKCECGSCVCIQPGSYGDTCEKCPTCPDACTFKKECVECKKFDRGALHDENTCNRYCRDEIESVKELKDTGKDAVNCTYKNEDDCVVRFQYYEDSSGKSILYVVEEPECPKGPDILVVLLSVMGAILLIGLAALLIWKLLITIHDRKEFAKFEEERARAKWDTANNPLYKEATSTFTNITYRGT

Chain of β1 integrins on human neutrophils (P05556 21-798): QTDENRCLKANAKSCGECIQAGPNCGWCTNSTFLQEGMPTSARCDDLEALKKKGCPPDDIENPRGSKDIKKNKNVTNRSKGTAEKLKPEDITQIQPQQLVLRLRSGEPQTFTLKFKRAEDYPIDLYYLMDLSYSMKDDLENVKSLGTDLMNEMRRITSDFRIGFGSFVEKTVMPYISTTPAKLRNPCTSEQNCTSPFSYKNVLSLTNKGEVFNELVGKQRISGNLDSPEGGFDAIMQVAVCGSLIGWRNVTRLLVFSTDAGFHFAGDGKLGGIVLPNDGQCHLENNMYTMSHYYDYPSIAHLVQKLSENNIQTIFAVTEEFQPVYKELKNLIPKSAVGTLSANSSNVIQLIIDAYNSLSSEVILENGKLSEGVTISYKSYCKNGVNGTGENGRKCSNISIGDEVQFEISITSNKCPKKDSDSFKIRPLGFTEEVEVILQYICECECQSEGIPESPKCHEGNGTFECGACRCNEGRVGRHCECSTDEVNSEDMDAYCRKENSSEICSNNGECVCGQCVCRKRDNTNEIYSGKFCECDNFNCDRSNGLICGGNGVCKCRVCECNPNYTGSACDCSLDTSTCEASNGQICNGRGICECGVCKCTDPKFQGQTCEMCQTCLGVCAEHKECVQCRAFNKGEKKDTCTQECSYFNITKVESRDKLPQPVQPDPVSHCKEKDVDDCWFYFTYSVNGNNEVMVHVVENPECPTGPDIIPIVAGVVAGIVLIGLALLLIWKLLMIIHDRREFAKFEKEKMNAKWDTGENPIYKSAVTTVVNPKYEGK

B1: Recombinant human activated protein C (enzyme)
chain 1: ANSFLEELRHSSLERECIEEICDFEEAKEIFQNVDDTLAFWSKHVDGDQCLVLPLEHPCASLCCGHGTCIDGIGSFSCDCRSGWEGRFCQREVSFLNCSLDNGGCTHYCLEEVGWRRCSCAPGYKLGDDLLQCHPAVKFPCGRPWKRMEKKRSHL
chain 2: LIDGKMTRRGDSPWQVVLLDSKKKLACGAVLIHPSWVLTAAHCMDESKKLLVRLGEYDLRRWEKWELDLDIKEVFVHPNYSKSTTDNDIALLHLAQPATLSQTIVPICLPDSGLAERELNQAGQETLVTGWGYHSSREKEAKRNRTFVLNFIKIPVVPHNECSEVMSNMVSENMLCAGILGDRQDACEGDSGGPMVASFHGTWFLVGLVSWGEGCGLLHNYGVYTKVSRYLDWIHGHIRDKEAPQKSWAP
Consider B1, for which the “average lateral migration speed (S) of neutrophils on FN toward fMLP, micropipette assay” value in test [1] and in test [2] was 2.5 fold in each case.
